In paper PMC6002036, “Characterization of a non-nudix pyrophosphatase points to interplay between flavin and NAD(H) homeostasis in Saccharomyces cerevisiae” (PLoS ONE, 2018):

Assays:
[1] = substrate: Cc1cc2nc3c(=O)[nH]c(=O)nc-3n(C[C@H](O)[C@H](O)[C@H](O)COP(=O)(O)OP(=O)(O)OC[C@H]3O[C@@H](n4cnc5c(N)ncnc54)[C@H](O)[C@@H]3O)c2cc1C; test: HPLC fluorescence of FMN product, Michaelis-Menten fit; type: biochemical, Saccharomyces cerevisiae; conditions: 4 mM CoCl2, 200 mM KCl, 100 mM Hepes-KOH pH 7.0, 30 °C
From the text: HPLC fluorescence of FMN product, Michaelis-Menten fit on Fpy1p

[2] = target: the molecule itself; test: SEC; gel filtration on Superdex 200 10/300 in 50 mM potassium phosphate pH 7.5, 150 mM KCl, 100 mM L-arginine HCl, 0.1% Tween-20, 1 mM THP; calibrated with standards of 12.4-200 kDa; Fpy1p detected in fractions by enzymatic assay

B1: Fpy1p (protein encoded by YMR178w), recombinant with V5 epitope and 6xHis tag (enzyme, S. cerevisiae, UniProt Q03219 1-274, looked up)
chain: MVKVTAACIIIGDEVLNGKVVDTNSTFFAKYCFDHGIQLKEIATIGDDETQIVDTVRRLVKNYDFIISTGGIGPTHDDITYECMAKSFNLPCELDEECKERMRHKSDPEARLDADALKAHYQMATMPKGTNVKNYYVCDDLWVPICSISHKMYILPGIPQLFARMLKAFTPTLKKIYNLDKDPREYVRYFVRTHLTESQISKELKLIQDESTKVSEAIKIGSYPHFGMGFNTVSILGEKKDDSYLKSIVNRVVNNLEGEVISSELENKFSNQES
notes: Fpy1p, the pyrophosphatase encoded by ORF YMR178w of S. cerevisiae; whole open reading frame without the stop codon, amplified from the start codon; also called YMR178wp; source: S. cerevisiae strain Y258 (pYES-DEST52, galactose induction), purified (two-step IMAC: Cu2+ then Ni2+)
Km [1]: 16.1 ± 2.1 µM | kcat [1]: 0.38 s⁻¹ | kcat/Km [1]: 23000 M⁻¹ s⁻¹ | stoichiometry N [2]: 3
